{
  "source": "patent US12564623B2",
  "about": "“Methods and compositions for treating cancer” (The University of Chicago, priority 2017, dated 2026)",
  "key": {"MDA-MB-231 cells [1]": {"test_system": "MDA-MB-231 cells", "test": "ELANE inactivation by PMSF or A1AT and killing assay", "format": "cell-based, human", "details": "irreversible non-competitive ELANE inhibitors", "description": "(FIG. 5A) Purified native ELANE or PMN media was treated with PMSF (100 nM) or alpha-1-anti-trypsin (A1AT; 42 nM) for 30 mins and loss of ELANE catalytic activity was confirmed by a chromogenic substrate assay. Killing assays were performed by treating MDA-MB-231 cells for 24 hrs treatment and assessed by Calcein AM staining. (FIG. 5B) ELANE activity in PMN media was measured by a chromogenic substrate activity assay, and PMN killing was measured by Calcein AM staining on MDA-MB-231 cells exposed to PMN media for 4h."}, "ELANE [2]": {"test_system": "ELANE", "details": "specific ELANE inhibitors; cited from earlier work"}, "[3]": {"test_system": "E0771, B16F10, or LLC1 cancer cells", "test": "Tumor growth after intratumoral delivery, syngeneic models", "format": "in vivo, C57BL/6 mice", "details": "11.6 μg intratumorally once/day for 5 days", "description": "ELANE activity is required for its anti-tumor function in vivo. (FIG. 14A) Catalytic activity of ELANE or ELANE that had been inactivated by treatment with 100 nM PMSF (PMSF-ELANE) was determined by a chromogenic substrate. (FIG. 14B) E0771, B16F10, or LLC1 cancer cells were injected into C57BL/6 mice. Once tumors reached ˜100 mm^3, human serum albumin (HSA, 11.6 μg), ELANE (11.6 μg), or PMSF-ELANE (11.6 μg) were delivered intratumorally once/day for 5 days. Tumor volume was assessed by calipers."}, "ELANE [4]": {"target": "T1, ELANE (Homo sapiens, UniProt P08246)", "T1 construct": "incubated the neutrophil conditioned media with magnetic beads coupled to an anti-ELANE antibody; endogenous in cells; host or cells: human peripheral blood neutrophils from healthy donors (conditioned media)", "T1 sequence (P08246 30-267)": "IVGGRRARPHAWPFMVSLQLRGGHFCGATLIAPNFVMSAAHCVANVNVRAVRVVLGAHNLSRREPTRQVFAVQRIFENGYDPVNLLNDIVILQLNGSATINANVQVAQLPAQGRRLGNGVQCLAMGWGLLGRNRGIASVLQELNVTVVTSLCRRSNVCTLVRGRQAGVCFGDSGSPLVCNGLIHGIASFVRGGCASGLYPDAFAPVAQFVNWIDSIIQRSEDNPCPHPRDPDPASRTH", "test": "ELANE catalytic activity with increasing ECP, chromogenic substrate activity assay", "format": "biochemical", "details": "ECP as type 2 allosteric activator", "description": "(§1) FIG. 7A-D. ECP is a type II allosteric activator of ELANE catalytic activity. (a) 10 nM ELANE was incubated with increasing ECP concentrations at various substrate concentrations. Catalytic activity was measured by a chromogenic substrate activity assay. (b) Km (app) and Vmax (app) values were obtained by fitting curves to Michaelis-Menten equations (lines). (c) Km (app) versus ECP concentration. (d) Vmax (app) versus ECP concentration. ELANE was immunoprecipitated from human PMN media and samples were probed with anti-ELANE and anti-ECP antibodies. Orig=PMN media, Sup=flow-though, Wash=bead wash, Elute=bound to anti-ELANE antibody.\nas §1, with “ECP” for “FIG. 7A-D. ECP”, “(FIG. 7A)” for “(a)”, “(FIG. 7B)” for “(b)”, “(FIG. 7C)” for “(c)”, “(FIG. 7D)” for “(d)”"}, "MDA-MB-231 cells [5]": {"test_system": "MDA-MB-231 cells", "test": "Cancer cell killing, Calcein AM staining", "format": "cell-based, human", "details": "increasing doses, 5h", "description": "Approach to identify the factor(s) mediating selective killing. A quantitative cancer cell killing assay was developed to track the bioactive factor(s). MDA-MB-231 cells were treated with various doses of PMN media and cell viability was assessed by Calcein AM live cells fluorescence staining. […] (FIG. 3B) PMN media was passed through a 0.22 μm filter, and protein concentration and killing activity on MDA-MB-231 cancer cells was measured in both pre- and post-filter solutions. […] ELANE and ECP levels in PMN media pre- and post-filtration were quantified by mass spectrometry (spectral counts).\nTo determine if ELANE and/or ECP were responsible, the inventors (1) immuno-depleted ELANE or ECP from PMN media; (2) treated cancer or normal cells with purified native ELANE or ECP from commercial sources. (FIG. 6A) ELANE or ECP were depleted from PMN media by immunoprecipitation; depletion was confirmed by western blotting. PMN media pre-depletion=Orig. and post-depletion=FT. Non-specific IgG was used as a control. (FIG. 6B) MDA-MB-231 cells or human monocyte-derived macrophages (HMDMs) were treated with purified native ELANE or ECP at various doses for 24h, and killing was assessed by Calcein AM staining. (FIG. 6C) MDA-MB-231 cells and HMDMs were treated with levels of ELANE (0.25 μg/mL) or ECP (0.05 μg/mL) that were present in the PMN media, alone or in combination for 24 hrs, and killing was examined by Calcein AM staining.\nHigh doses of ECP or ELANE can kill cancer cells. The inventors sought to determine whether adding purified human ECP (Lee Biosolutions), human ELANE (Abcam), human DEFA1 (Abcam), human ANXA6 (R&D Systems) or human CASP3 (Abcam) individually could kill cancer cells without killing non-cancer cells. Increasing doses of each protein were added to MDA-MB-231 cells for 5h or human monocyte-derived macrophages (HMDMs) for 24 h and cell viability was determined by Calcein-AM.\nELANE and ECP synergize to selectively kill cancer cells. MDA-MB-231 and human monocyte-derived macrophages (HMDMs) were treated with levels of ELANE (0.25 μg/mL) or ECP (0.05 μg/mL) that were present in the PMN media, alone or in combination for 24 hrs. killing was examined by Calcein AM staining.\nCombining chemotherapeutics and neutrophil conditioned media enhances the killing of human triple negative breast cancer cells. MDA-MB-231 cells were treated with neutrophil conditioned media (Neu-CM; 4 μg/mL), doxorubicin (DOX; 0.3 μM), or paclitaxel (PTX; 3 nM) for 4h, individually or in combination, and cell viability was assessed by Calcein-AM.\nOther serine proteases cleave the C-terminal domain of CD95, and the ability to cleave the C-terminal domain is associated with cancer cell killing. (FIG. 12A) Full length recombinanat CD95 protein was incubated with various serine proteases (human ELANE (80 nM), PR3 (80 nM), CSTG (80 nM), PPE (80 nM), mouse ELANE (80 nM), rat ELANE (500 nM), GZMB (80 nM), or Trypsin (250 nM)), or other types of proteases (CTSC (80 nM); or MMP7 (80 nM), MMP9 (80 nM), CTSD (80 nM) not shown) at 37° C. for 2 hours. Degradation was assessed by SDS-PAGE followed by coomassie blue staining. (FIG. 12B) MDA-MB-231 cancer cells were incubated with various proteases for 24 hrs. Cell viability was assessed by Calcein AM staining.\n(FIG. 13A) MDA-MB-231 cancer cells were treated with various doses of purified native ELANE or purified native porcine pancreatic elastase (PPE) for 6 h, and killing was assessed by Calcein AM staining. (FIG. 13B). Purified native ELANE or purified native PPE was incubated with different concentrations of alpha-1-anti-trypsin (A1AT) for 15 mins. Catalytic activity was measured using a chromogenic substrate assay. Cancer cell killing capability was determined by treating MDA-MB-231 cancer cells with ELANE or PPE in the presence or absence of A1AT for 6h, followed by Calcein AM staining. (FIG. 13C) Catalytic activity was measured using a chromogenic substrate assay. […]"}, "[6]": {"test_system": "human monocyte-derived macrophages (HMDMs)", "format": "cell-based", "description": "Human peripheral blood neutrophils were isolated from healthy donors. Cells were plated in serum-free DMEM and the neutrophil conditioned media (Neu CM) was collected for 24h. […] High doses of ECP or ELANE can kill cancer cells. The inventors sought to determine whether adding purified human ECP (Lee Biosolutions), human ELANE (Abcam), human DEFA1 (Abcam), human ANXA6 (R&D Systems) or human CASP3 (Abcam) individually could kill cancer cells without killing non-cancer cells. Increasing doses of each protein were added to MDA-MB-231 cells for 5h or human monocyte-derived macrophages (HMDMs) for 24 h and cell viability was determined by Calcein-AM. […] ELANE and ECP synergize to selectively kill cancer cells. MDA-MB-231 and human monocyte-derived macrophages (HMDMs) were treated with levels of ELANE (0.25 μg/mL) or ECP (0.05 μg/mL) that were present in the PMN media, alone or in combination for 24 hrs. killing was examined by Calcein AM staining."}, "ELANE [7]": {"target": "T1, ELANE", "test": "Anti-ELANE magnetic bead pull-down from neutrophil conditioned media, western blotting", "format": "binding", "details": "anti-ELANE antibody beads", "text": "Identification of ECP, ELANE, ANXA6, DEFA1, and CASP3 as candidate cancer cell killing proteins in the neutrophil conditioned media. Neutrophil conditioned media was obtained from 2 different donors (Donor 1 and Donor 2). […] To determine the identity of the proteins depleted by the 0.2 μm sterile filter, the inventors performed quantitative proteomics analysis on the conditioned media from each donor pre- and post-filter. Proteomics analysis identified 2000 proteins, 4 of which (ECP, ELANE, ANXA6, and DEFA1) were depleted in samples from both donors (G-test, p<0.05). The inventors explored the possibility that these proteins might interact with or complement one another. This hypothesis was tested using two approaches. First, the inventors incubated the neutrophil conditioned media with magnetic beads coupled to an anti-ELANE antibody and analyzed the supernatant (sup), wash, and eluent (elute) by western blotting."}},
  "note": "Ends that are not written are not given here.",
  "data": [
    {"molecule": "O=S(=O)(F)Cc1ccccc1", "note": "[PMSF]", "values": [
      {"measurement": "effect on cancer cell apoptosis of treating ELANE or neutrophil conditioned media with inhibitor", "setting": "MDA-MB-231 cells [1]", "result": "protects cancer cells from apoptosis"}
    ]},
    {"molecule": "CC(C)(C)C(=O)Oc1ccc(S(=O)(=O)Nc2ccccc2C(=O)NCC(=O)O)cc1", "note": "[sivelestat]", "values": [
      {"measurement": "growth of transplanted cancer cells", "setting": "ELANE [2]", "result": "suppress growth of cancer cells transplanted into severe combined immunodeficiency mice"}
    ]},
    {"molecule": "alpha-1-antitrypsin", "values": [
      {"measurement": "effect on cancer cell apoptosis of treating ELANE or neutrophil conditioned media with inhibitor", "setting": "MDA-MB-231 cells [1]", "result": "protects cancer cells from apoptosis"}
    ]},
    {"molecule": "elafin (AQEPVKGPVSTKPGSCPIILIRCAMLNPPNRCLKDTDCPGIKKCCEGSCGMACFVPQ; ends and bridges not checked; cysteine pairing not given here; UniProt P19957 61-117, looked up)", "values": [
      {"measurement": "growth of transplanted cancer cells", "setting": "ELANE [2]", "result": "suppress growth of cancer cells transplanted into severe combined immunodeficiency mice"}
    ]},
    {"molecule": "PMSF-ELANE: ELANE that had been inactivated by treatment with PMSF (protein, UniProt P08246 30-267, looked up, PMSF-inactivated) Neutrophil elastase: IVGGRRARPHAWPFMVSLQLRGGHFCGATLIAPNFVMSAAHCVANVNVRAVRVVLGAHNLSRREPTRQVFAVQRIFENGYDPVNLLNDIVILQLNGSATINANVQVAQLPAQGRRLGNGVQCLAMGWGLLGRNRGIASVLQELNVTVVTSLCRRSNVCTLVRGRQAGVCFGDSGSPLVCNGLIHGIASFVRGGCASGLYPDAFAPVAQFVNWIDSIIQRSEDNPCPHPRDPDPASRTH", "values": [
      {"measurement": "tumor growth", "setting": "[3]", "result": "no effect on tumor growth"}
    ]},
    {"molecule": "eosinophil cationic protein (protein, listed as Homo sapiens) MVPKLFTSQICLLLLLGLMGVEGSLHARPPQFTRAQWFAIQHISLNPPRCTIAMRAINNYRWRCKNQNTFLRTTFANVVNVCGNQSIRCPHNRTLNNCHRSRFRVPLLHCDLINPGAQNISNCTYADRPGRRFYVVACDNRDPRDSPRYPVVPVHLDTTI", "values": [
      {"measurement": "effect on KM of ELANE", "setting": "ELANE [4]", "result": "without altering KM"},
      {"measurement": "increase of kcat of ELANE for its substrate", "setting": "ELANE [4]", "result": 12, "unit": "fold"},
      {"measurement": "cancer cell killing activity of purified protein", "setting": "MDA-MB-231 cells [5]", "result": "highest cancer cell killing activity"},
      {"measurement": "toxicity to human monocyte-derived macrophages", "setting": "[6]", "result": "showed toxicity"},
      {"measurement": "binding to ELANE", "setting": "ELANE [7]", "result": "ELANE-binding proteins"}
    ]}
  ]
}
